# Results from the supplement of paper PMC9112550, “Optimization of the antimicrobial peptide Bac7 by deep mutational scanning” (BMC Biology, 2022).
# Tested on: Escherichia coli TOP10
# Test: shrunken log2 fold change of peptide-encoding DNA abundance (4.5 h post-induction vs induction); higher = less antimicrobial activity (less host growth inhibition)
# Conditions: time post-induction: 4.5 h; library: site-saturation at positions 5, 18, 19, 20
# 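Further: peptides expressed intracellularly from a pBAD plasmid library in pooled LB shake-flask culture, induced with 0.3% L-arabinose, DNA abundance read by NGS, three biological replicates, DESeq2 with apeglm shrinkage.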
row,Sequence,shrunken log2 fold change
1,RRIRSRPPRLPRPRPRPQHNPRP,-0.628
2,RRIRERPPRLPRPRPRPWGNPRP,-0.377
3,RRIRTRPPRLPRPRPRPALCPRP,-0.0776
4,RRIRVRPPRLPRPRPRPSQMPRP,-0.0502
5,RRIRYRPPRLPRPRPRPMHQPRP,-0.0734
6,RRIRQRPPRLPRPRPRPCGHPRP,0.0101
7,RRIRKRPPRLPRPRPRPNGNPRP,-0.146
8,RRIRSRPPRLPRPRPRPGVKPRP,0.235
9,RRIRWRPPRLPRPRPRPNLSPRP,-0.197
10,RRIRMRPPRLPRPRPRPVVKPRP,0.189
11,RRIRARPPRLPRPRPRPTEVPRP,0.173
12,RRIRNRPPRLPRPRPRPHHVPRP,-0.0011
13,RRIRYRPPRLPRPRPRPLIYPRP,-1.24
14,RRIRHRPPRLPRPRPRPSTHPRP,-0.564
15,RRIRWRPPRLPRPRPRPSLIPRP,-0.574
16,RRIRDRPPRLPRPRPRPMYYPRP,-0.535
17,RRIRARPPRLPRPRPRPWAPPRP,0.0486
18,RRIRERPPRLPRPRPRPCGYPRP,-0.239
19,RRIRGRPPRLPRPRPRPHGIPRP,0.00234
20,RRIRDRPPRLPRPRPRPVRWPRP,1.2
21,RRIRLRPPRLPRPRPRPIYAPRP,0.111
22,RRIRARPPRLPRPRPRPAFLPRP,0.486

row,Sequence,shrunken log2 fold change
1,RRIRWRPPRLPRPRPRPEFWPRP,0.6
2,RRIRWRPPRLPRPRPRPGEEPRP,0.387
3,RRIRIRPPRLPRPRPRPPCTPRP,-0.332
4,RRIRRRPPRLPRPRPRPPFMPRP,0.22
5,RRIRKRPPRLPRPRPRPTAAPRP,0.757
6,RRIRKRPPRLPRPRPRPWYGPRP,-0.188
7,RRIRDRPPRLPRPRPRPVGFPRP,0.859
8,RRIRYRPPRLPRPRPRPPRYPRP,-0.226
9,RRIRTRPPRLPRPRPRPGFYPRP,-0.159
10,RRIRARPPRLPRPRPRPETDPRP,0.764
11,RRIRFRPPRLPRPRPRPNTNPRP,-0.622
12,RRIRSRPPRLPRPRPRPSIDPRP,-0.536
13,RRIRARPPRLPRPRPRPITAPRP,0.232
14,RRIRKRPPRLPRPRPRPCQLPRP,-0.0631
15,RRIRHRPPRLPRPRPRPGCLPRP,-0.278
16,RRIRFRPPRLPRPRPRPNMRPRP,0.386
17,RRIRTRPPRLPRPRPRPQARPRP,-0.0339
18,RRIRSRPPRLPRPRPRPKQCPRP,0.14
19,RRIRARPPRLPRPRPRPRGRPRP,0.703
20,RRIRGRPPRLPRPRPRPYMKPRP,-0.493
21,RRIRHRPPRLPRPRPRPACFPRP,-0.126
22,RRIRGRPPRLPRPRPRPMDEPRP,0.237

row,Sequence,shrunken log2 fold change
1,RRIRSRPPRLPRPRPRPKPNPRP,0.217
2,RRIRNRPPRLPRPRPRPVAEPRP,0.363
3,RRIRKRPPRLPRPRPRPHPNPRP,0.135
4,RRIRVRPPRLPRPRPRPYYKPRP,-0.67
5,RRIRVRPPRLPRPRPRPKCDPRP,0.0741
6,RRIRHRPPRLPRPRPRPCCHPRP,-0.707
7,RRIRFRPPRLPRPRPRPWQRPRP,-0.0586
8,RRIRIRPPRLPRPRPRPYIGPRP,-0.775
9,RRIRWRPPRLPRPRPRPEYAPRP,0.467
10,RRIRKRPPRLPRPRPRPDYTPRP,-0.193
11,RRIRPRPPRLPRPRPRPKFEPRP,0.319
12,RRIRERPPRLPRPRPRPFPAPRP,-0.0357
13,RRIRHRPPRLPRPRPRPNMQPRP,-0.0674
14,RRIRARPPRLPRPRPRPRDSPRP,0.499
15,RRIRQRPPRLPRPRPRPAGVPRP,-0.102
16,RRIRQRPPRLPRPRPRPNCEPRP,0.117
17,RRIRDRPPRLPRPRPRPHTNPRP,-0.367
18,RRIRARPPRLPRPRPRPSKEPRP,0.103
19,RRIRNRPPRLPRPRPRPYITPRP,-0.292
20,RRIRFRPPRLPRPRPRPMGLPRP,-0.00847
21,RRIRFRPPRLPRPRPRPFMEPRP,-0.728
22,RRIRDRPPRLPRPRPRPVPHPRP,0.012

row,Sequence,shrunken log2 fold change
1,RRIRWRPPRLPRPRPRPERRPRP,0.327
2,RRIRMRPPRLPRPRPRPHLLPRP,0.137
3,RRIRSRPPRLPRPRPRPNDGPRP,-0.0933
4,RRIRTRPPRLPRPRPRPSMAPRP,0.444
5,RRIRVRPPRLPRPRPRPRRWPRP,0.334
6,RRIRGRPPRLPRPRPRPDGQPRP,0.175
7,RRIRVRPPRLPRPRPRPVKVPRP,0.0348
8,RRIRLRPPRLPRPRPRPFLHPRP,-0.306
9,RRIRYRPPRLPRPRPRPGIKPRP,-0.311
10,RRIRFRPPRLPRPRPRPHYIPRP,-0.0793
11,RRIRSRPPRLPRPRPRPHCWPRP,-0.0424
12,RRIRPRPPRLPRPRPRPNVVPRP,-0.0229
13,RRIRSRPPRLPRPRPRPQKAPRP,0.091
14,RRIRMRPPRLPRPRPRPICFPRP,0.149
15,RRIRARPPRLPRPRPRPAYPPRP,0.106
16,RRIRDRPPRLPRPRPRPPMYPRP,-0.405
17,RRIRLRPPRLPRPRPRPHSVPRP,-0.0683
18,RRIRGRPPRLPRPRPRPEEHPRP,0.131
19,RRIRYRPPRLPRPRPRPTATPRP,-0.038
20,RRIRKRPPRLPRPRPRPWSDPRP,-0.0989
21,RRIRKRPPRLPRPRPRPYKHPRP,-0.347
22,RRIRIRPPRLPRPRPRPMCRPRP,-0.236

row,Sequence,shrunken log2 fold change
1,RRIRYRPPRLPRPRPRPYGFPRP,-0.182
2,RRIRQRPPRLPRPRPRPNGGPRP,0.00705
3,RRIRLRPPRLPRPRPRPEQYPRP,-0.122
4,RRIRHRPPRLPRPRPRPKAHPRP,-0.145
5,RRIRARPPRLPRPRPRPEDVPRP,0.931
6,RRIRWRPPRLPRPRPRPAAAPRP,1.21
7,RRIRNRPPRLPRPRPRPSMQPRP,-0.152
8,RRIRHRPPRLPRPRPRPIYTPRP,-1.35
9,RRIRNRPPRLPRPRPRPEWIPRP,-0.16
10,RRIRMRPPRLPRPRPRPMMPPRP,0.0687
11,RRIRKRPPRLPRPRPRPQDNPRP,-0.0637
12,RRIRHRPPRLPRPRPRPCLYPRP,-0.057
13,RRIRPRPPRLPRPRPRPSFEPRP,-0.102
14,RRIRQRPPRLPRPRPRPGHSPRP,-0.00616
15,RRIRERPPRLPRPRPRPIKCPRP,-0.0487
16,RRIRLRPPRLPRPRPRPTHSPRP,0.122
17,RRIRHRPPRLPRPRPRPQNGPRP,-0.535
18,RRIRYRPPRLPRPRPRPSSCPRP,-0.101
19,RRIRWRPPRLPRPRPRPEKGPRP,0.0282
20,RRIRRRPPRLPRPRPRPQCQPRP,0.0393
21,RRIRCRPPRLPRPRPRPEHWPRP,0.118
